We go through one substance from patent US20210230664.

This series concerns dCas9 (SpCas9 D10A/H840A) D10A,H840A (Streptococcus pyogenes). As to conditions: nanochannel imaging; NEB Buffer 3, BSA, 37 C 60 min; about 16% of labels off-target; PAM not stated.

On to “DUF1220 crRNA (with tracrRNA-ATTO647) ; linearized BAC DNA with DUF1220 repeats”, for which the activity (% target sites labeled) amounted to 86.
